# Data from the supplement of paper PMC11136658.
# System: peptide library, one residue held at a place counted from the Y acceptor
# Experiment: relative phosphorylation of the sub-library (ratio to the mean residue at this position); higher = residue favoured
# Method in brief: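 Biotinylated Tyr-centred peptide library mixtures, each fixing one residue at one position from −5 to +5, were incubated with purified recombinant kinases in 384-well plates for 90 min with 50 μM ATP plus γ-32P-ATP. Streptavidin membranes captured the peptides, which were rinsed and quantified by phosphorimaging and ImageQuant. At each position, intensities were divided by the sum of the 18 randomized residues (16 for the Ser/Thr-free library) and multiplied by that number. Each value is phosphorylation relative to the mean randomized residue.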
# Chain of ABL1, construct: aa27-end, human (P00519 27-1130, looked up): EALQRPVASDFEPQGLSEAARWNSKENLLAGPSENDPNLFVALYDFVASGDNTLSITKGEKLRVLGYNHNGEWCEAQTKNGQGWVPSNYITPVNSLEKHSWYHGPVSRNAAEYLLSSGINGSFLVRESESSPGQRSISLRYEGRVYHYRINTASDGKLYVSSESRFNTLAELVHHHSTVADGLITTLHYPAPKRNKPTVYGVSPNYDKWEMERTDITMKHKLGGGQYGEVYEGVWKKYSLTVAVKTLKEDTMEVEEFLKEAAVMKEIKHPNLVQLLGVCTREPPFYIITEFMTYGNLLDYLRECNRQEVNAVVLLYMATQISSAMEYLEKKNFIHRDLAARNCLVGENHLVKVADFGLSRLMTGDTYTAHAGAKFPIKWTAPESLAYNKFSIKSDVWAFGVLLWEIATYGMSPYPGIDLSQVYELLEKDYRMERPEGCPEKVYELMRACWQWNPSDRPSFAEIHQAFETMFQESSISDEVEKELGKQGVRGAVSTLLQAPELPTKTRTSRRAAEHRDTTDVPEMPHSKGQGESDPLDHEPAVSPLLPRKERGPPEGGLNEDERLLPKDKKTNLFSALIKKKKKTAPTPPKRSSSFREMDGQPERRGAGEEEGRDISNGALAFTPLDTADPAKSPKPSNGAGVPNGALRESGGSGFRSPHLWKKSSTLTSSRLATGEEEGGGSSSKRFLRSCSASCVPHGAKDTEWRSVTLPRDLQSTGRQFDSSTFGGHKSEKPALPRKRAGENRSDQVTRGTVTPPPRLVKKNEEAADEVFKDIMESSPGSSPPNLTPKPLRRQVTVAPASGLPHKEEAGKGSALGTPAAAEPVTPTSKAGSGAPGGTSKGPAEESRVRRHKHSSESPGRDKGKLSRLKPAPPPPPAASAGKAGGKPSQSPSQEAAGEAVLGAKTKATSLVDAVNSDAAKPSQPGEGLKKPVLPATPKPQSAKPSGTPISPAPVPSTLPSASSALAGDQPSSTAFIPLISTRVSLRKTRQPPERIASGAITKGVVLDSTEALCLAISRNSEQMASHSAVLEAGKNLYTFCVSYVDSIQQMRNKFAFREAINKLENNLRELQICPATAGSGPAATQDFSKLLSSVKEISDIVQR
substance,measurement,setting,value
"ABL1, construct: aa27-end, human (from UniProt P00519)",relative phosphorylation,"A fixed, at +1",3.14
same,relative phosphorylation,"A fixed, at +2",1.24
same,relative phosphorylation,"A fixed, at +3",0.892
same,relative phosphorylation,"A fixed, at +4",0.948
same,relative phosphorylation,"A fixed, at +5",1.12
same,relative phosphorylation,"A fixed, at -1",0.702
same,relative phosphorylation,"A fixed, at -2",1.12
same,relative phosphorylation,"A fixed, at -3",1.02
same,relative phosphorylation,"A fixed, at -4",1.24
same,relative phosphorylation,"A fixed, at -5",1.16
same,relative phosphorylation,"D fixed, at +1",0.625
same,relative phosphorylation,"D fixed, at +2",0.513
same,relative phosphorylation,"D fixed, at +3",0.23
same,relative phosphorylation,"D fixed, at +4",0.579
same,relative phosphorylation,"D fixed, at +5",0.651
same,relative phosphorylation,"D fixed, at -1",0.886
same,relative phosphorylation,"D fixed, at -2",0.85
same,relative phosphorylation,"D fixed, at -3",1.21
same,relative phosphorylation,"D fixed, at -4",1.2
same,relative phosphorylation,"D fixed, at -5",1.03
same,relative phosphorylation,"E fixed, at +1",0.874
same,relative phosphorylation,"E fixed, at +2",0.93
same,relative phosphorylation,"E fixed, at +3",0.159
same,relative phosphorylation,"E fixed, at +4",0.615
same,relative phosphorylation,"E fixed, at +5",0.611
same,relative phosphorylation,"E fixed, at -1",1.2
same,relative phosphorylation,"E fixed, at -2",1.24
same,relative phosphorylation,"E fixed, at -3",1.91
same,relative phosphorylation,"E fixed, at -4",1.52
same,relative phosphorylation,"E fixed, at -5",0.963
same,relative phosphorylation,"F fixed, at +1",0.86
same,relative phosphorylation,"F fixed, at +2",0.975
same,relative phosphorylation,"F fixed, at +3",1.28
same,relative phosphorylation,"F fixed, at +4",1.16
same,relative phosphorylation,"F fixed, at +5",0.705
same,relative phosphorylation,"F fixed, at -1",0.795
same,relative phosphorylation,"F fixed, at -2",0.615
same,relative phosphorylation,"F fixed, at -3",0.796
same,relative phosphorylation,"F fixed, at -4",0.702
same,relative phosphorylation,"F fixed, at -5",0.817
same,relative phosphorylation,"G fixed, at +1",1.36
same,relative phosphorylation,"G fixed, at +2",0.628
same,relative phosphorylation,"G fixed, at +3",1.36
same,relative phosphorylation,"G fixed, at +4",1.34
same,relative phosphorylation,"G fixed, at +5",1.27
same,relative phosphorylation,"G fixed, at -1",0.502
same,relative phosphorylation,"G fixed, at -2",1.27
same,relative phosphorylation,"G fixed, at -3",1.16
same,relative phosphorylation,"G fixed, at -4",1.36
same,relative phosphorylation,"G fixed, at -5",1.24
same,relative phosphorylation,"H fixed, at +1",1.17
same,relative phosphorylation,"H fixed, at +2",0.749
same,relative phosphorylation,"H fixed, at +3",0.814
same,relative phosphorylation,"H fixed, at +4",1.17
same,relative phosphorylation,"H fixed, at +5",1.1
same,relative phosphorylation,"H fixed, at -1",1.63
same,relative phosphorylation,"H fixed, at -2",0.935
same,relative phosphorylation,"H fixed, at -3",0.919
same,relative phosphorylation,"H fixed, at -4",0.893
same,relative phosphorylation,"H fixed, at -5",1.07
same,relative phosphorylation,"I fixed, at +1",0.406
same,relative phosphorylation,"I fixed, at +2",1.05
same,relative phosphorylation,"I fixed, at +3",1.14
same,relative phosphorylation,"I fixed, at +4",0.772
same,relative phosphorylation,"I fixed, at +5",0.681
same,relative phosphorylation,"I fixed, at -1",3.33
same,relative phosphorylation,"I fixed, at -2",0.883
same,relative phosphorylation,"I fixed, at -3",0.491
same,relative phosphorylation,"I fixed, at -4",0.797
same,relative phosphorylation,"I fixed, at -5",0.806
same,relative phosphorylation,"K fixed, at +1",0.586
same,relative phosphorylation,"K fixed, at +2",0.815
same,relative phosphorylation,"K fixed, at +3",0.403
same,relative phosphorylation,"K fixed, at +4",1.17
same,relative phosphorylation,"K fixed, at +5",1.17
same,relative phosphorylation,"K fixed, at -1",0.402
same,relative phosphorylation,"K fixed, at -2",0.87
same,relative phosphorylation,"K fixed, at -3",0.79
same,relative phosphorylation,"K fixed, at -4",0.874
same,relative phosphorylation,"K fixed, at -5",1.08
same,relative phosphorylation,"L fixed, at +1",0.815
same,relative phosphorylation,"L fixed, at +2",0.961
same,relative phosphorylation,"L fixed, at +3",1.49
same,relative phosphorylation,"L fixed, at +4",0.918
same,relative phosphorylation,"L fixed, at +5",0.987
same,relative phosphorylation,"L fixed, at -1",1.54
same,relative phosphorylation,"L fixed, at -2",1.01
same,relative phosphorylation,"L fixed, at -3",0.885
same,relative phosphorylation,"L fixed, at -4",0.985
same,relative phosphorylation,"L fixed, at -5",0.936
same,relative phosphorylation,"M fixed, at +1",1.15
same,relative phosphorylation,"M fixed, at +2",0.954
same,relative phosphorylation,"M fixed, at +3",0.883
same,relative phosphorylation,"M fixed, at +4",1.19
same,relative phosphorylation,"M fixed, at +5",1.09
same,relative phosphorylation,"M fixed, at -1",1.06
same,relative phosphorylation,"M fixed, at -2",0.779
same,relative phosphorylation,"M fixed, at -3",0.928
same,relative phosphorylation,"M fixed, at -4",0.884
same,relative phosphorylation,"M fixed, at -5",0.965
same,relative phosphorylation,"N fixed, at +1",0.45
same,relative phosphorylation,"N fixed, at +2",1.01
same,relative phosphorylation,"N fixed, at +3",0.619
same,relative phosphorylation,"N fixed, at +4",0.897
same,relative phosphorylation,"N fixed, at +5",0.922
same,relative phosphorylation,"N fixed, at -1",0.549
same,relative phosphorylation,"N fixed, at -2",0.96
same,relative phosphorylation,"N fixed, at -3",1.18
same,relative phosphorylation,"N fixed, at -4",0.903
same,relative phosphorylation,"N fixed, at -5",1.09
same,relative phosphorylation,"P fixed, at +1",0.184
same,relative phosphorylation,"P fixed, at +2",1.02
same,relative phosphorylation,"P fixed, at +3",2.74
same,relative phosphorylation,"P fixed, at +4",0.832
same,relative phosphorylation,"P fixed, at +5",1.38
same,relative phosphorylation,"P fixed, at -1",0.541
same,relative phosphorylation,"P fixed, at -2",1.29
same,relative phosphorylation,"P fixed, at -3",1.14
same,relative phosphorylation,"P fixed, at -4",1.22
same,relative phosphorylation,"P fixed, at -5",1.2
same,relative phosphorylation,"Q fixed, at +1",1.13
same,relative phosphorylation,"Q fixed, at +2",0.901
same,relative phosphorylation,"Q fixed, at +3",0.419
same,relative phosphorylation,"Q fixed, at +4",1.09
same,relative phosphorylation,"Q fixed, at +5",0.947
same,relative phosphorylation,"Q fixed, at -1",0.745
same,relative phosphorylation,"Q fixed, at -2",1.08
same,relative phosphorylation,"Q fixed, at -3",0.973
same,relative phosphorylation,"Q fixed, at -4",1.18
same,relative phosphorylation,"Q fixed, at -5",1.07
same,relative phosphorylation,"R fixed, at +1",0.969
same,relative phosphorylation,"R fixed, at +2",1.22
same,relative phosphorylation,"R fixed, at +3",0.633
same,relative phosphorylation,"R fixed, at +4",1.36
same,relative phosphorylation,"R fixed, at +5",1.36
same,relative phosphorylation,"R fixed, at -1",0.406
same,relative phosphorylation,"R fixed, at -2",0.825
same,relative phosphorylation,"R fixed, at -3",0.813
same,relative phosphorylation,"R fixed, at -4",0.953
same,relative phosphorylation,"R fixed, at -5",1.19
same,relative phosphorylation,"S fixed, at +1",1.16
same,relative phosphorylation,"S fixed, at +2",1.32
same,relative phosphorylation,"S fixed, at +3",1.17
same,relative phosphorylation,"S fixed, at +4",1.01
same,relative phosphorylation,"S fixed, at +5",1.06
same,relative phosphorylation,"S fixed, at -1",0.472
same,relative phosphorylation,"S fixed, at -2",1.12
same,relative phosphorylation,"S fixed, at -3",1.06
same,relative phosphorylation,"S fixed, at -4",0.86
same,relative phosphorylation,"S fixed, at -5",1.01
same,relative phosphorylation,"T fixed, at +1",0.843
same,relative phosphorylation,"T fixed, at +2",1.37
same,relative phosphorylation,"T fixed, at +3",1.28
same,relative phosphorylation,"T fixed, at +4",0.939
same,relative phosphorylation,"T fixed, at +5",1.19
same,relative phosphorylation,"T fixed, at -1",0.908
same,relative phosphorylation,"T fixed, at -2",1.19
same,relative phosphorylation,"T fixed, at -3",1.05
same,relative phosphorylation,"T fixed, at -4",0.796
same,relative phosphorylation,"T fixed, at -5",0.97
same,relative phosphorylation,"V fixed, at +1",1.03
same,relative phosphorylation,"V fixed, at +2",1.39
same,relative phosphorylation,"V fixed, at +3",1.04
same,relative phosphorylation,"V fixed, at +4",0.925
same,relative phosphorylation,"V fixed, at +5",0.996
same,relative phosphorylation,"V fixed, at -1",1.81
same,relative phosphorylation,"V fixed, at -2",1.4
same,relative phosphorylation,"V fixed, at -3",0.873
same,relative phosphorylation,"V fixed, at -4",1.01
same,relative phosphorylation,"V fixed, at -5",0.873
same,relative phosphorylation,"W fixed, at +1",1.26
same,relative phosphorylation,"W fixed, at +2",0.958
same,relative phosphorylation,"W fixed, at +3",1.44
same,relative phosphorylation,"W fixed, at +4",1.08
same,relative phosphorylation,"W fixed, at +5",0.743
same,relative phosphorylation,"W fixed, at -1",0.516
same,relative phosphorylation,"W fixed, at -2",0.567
same,relative phosphorylation,"W fixed, at -3",0.799
same,relative phosphorylation,"W fixed, at -4",0.622
same,relative phosphorylation,"W fixed, at -5",0.509
same,relative phosphorylation,"pThr fixed, at +1",0.766
same,relative phosphorylation,"pThr fixed, at +2",0.921
same,relative phosphorylation,"pThr fixed, at +3",0.395
same,relative phosphorylation,"pThr fixed, at +4",0.391
same,relative phosphorylation,"pThr fixed, at +5",0.458
same,relative phosphorylation,"pThr fixed, at -1",0.785
same,relative phosphorylation,"pThr fixed, at -2",0.973
same,relative phosphorylation,"pThr fixed, at -3",1.51
same,relative phosphorylation,"pThr fixed, at -4",1.11
same,relative phosphorylation,"pThr fixed, at -5",0.913
same,relative phosphorylation,"pTyr fixed, at +1",1.47
same,relative phosphorylation,"pTyr fixed, at +2",1.77
same,relative phosphorylation,"pTyr fixed, at +3",0.465
same,relative phosphorylation,"pTyr fixed, at +4",0.55
same,relative phosphorylation,"pTyr fixed, at +5",0.607
same,relative phosphorylation,"pTyr fixed, at -1",3.35
same,relative phosphorylation,"pTyr fixed, at -2",1.39
same,relative phosphorylation,"pTyr fixed, at -3",2.36
same,relative phosphorylation,"pTyr fixed, at -4",1.66
same,relative phosphorylation,"pTyr fixed, at -5",1.18
